Our source for the Kd values is patent US20260078185A1 (published 2026).

For experiment [1], the target named is T1, Human VISTA recombinant protein (Sino Biological Inc., Cat. #13482-H08H), biotinylated (UniProt Q9H7M9 33-194, biotinylated using EZ-LINK NHS-PEG4 biotin). Put plainly: Octet BLI.
Experiment [2] has as its target T1, Human VISTA recombinant protein (Sino …). Nature of the experiment: Octet BLI. This is another data set of the same source.
The target in experiment [3] is T2, mouse VISTA recombinant protein (Sino Biological Inc., Cat. #51550-M08H), biotinylated (mouse, UniProt Q9D659 33-191, biotinylated using EZ-LINK NHS-PEG4 biotin).
T2 chain: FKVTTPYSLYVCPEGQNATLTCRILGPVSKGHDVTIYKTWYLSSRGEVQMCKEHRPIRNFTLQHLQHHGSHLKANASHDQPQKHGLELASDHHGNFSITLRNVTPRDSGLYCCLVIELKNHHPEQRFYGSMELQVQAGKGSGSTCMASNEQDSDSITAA
Nature of the experiment: Octet (BLI).

The target of experiment [4] is T2, mouse VISTA recombinant protein (Sino …). Put plainly: Octet (BLI).
Experiment [5] concerns the target T1, Human VISTA recombinant protein (Sino …). Put plainly: Octet BLI. This is another data set of the same source.

Where a chain is given by its changes, count along the chain named. Read-outs that look alike come from different tables or passages of the source.

T1 sequence (Q9H7M9 33-194): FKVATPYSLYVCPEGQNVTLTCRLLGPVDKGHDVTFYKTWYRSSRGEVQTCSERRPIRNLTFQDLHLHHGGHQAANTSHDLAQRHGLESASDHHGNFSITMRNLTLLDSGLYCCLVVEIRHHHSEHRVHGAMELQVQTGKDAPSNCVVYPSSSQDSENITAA

B1: 9F9 humanized anti-VISTA antibody VH9/VL9 (antibody, V domains shown)
VH: QVQFVQSGAEVKKPGSSVKVSCKASGYTFSGYWMQWVKQAPGQGLEWIGAIYPGDGDTRYSQKFKGKVTLTADESTSTAYMELSSLRSEDTAVYYCARRDYGAWFAYWGQGTLVTVSS
VL: DIKVTQSPSSLSASVGDRVTITCKASQDINSYLSWYQQKPGKAPKTLIYRANRLVDGVPSRFSGSGSGQDYTFTISSLQPEDIATYYCLQYDEFPYTFGQGTKVEIK
On to B1, for which the Kd in experiment [1] amounted to 37.7 nM; in experiment [2], 26.6 nM; in experiment [3], 23.9 nM; in experiment [4], 607 nM.

B2: 9F9 humanized anti-VISTA antibody VH7/VL7 (antibody, V domains shown)
VH: B1 VH with S16A, S30T, G44R, E74T, T76A
VL: B1 VL with D70E, F73L, I83F
Consider B2, for which the Kd in experiment [1] was 56.7 nM; in experiment [4], 866 nM.

B3: 9F9-VH8/VL8 (antibody, V domains shown)
VH: B1 VH with S16A, S30T, E74K
VL: B1 VL with G41E, Q69T, Y71F, F73L, I83F
As to B3, the figures for the Kd in experiment [1] and in experiment [4] were 36.6 nM and 336 nM, respectively.

B4: 20E4-VH1/VL1 (antibody, V domains shown)
VH: QVQLVQSGAEVKKPGASVKVSCKASGYTFSSSWVEWVRQAPGQGLEWMGEIFPGSGSTHYNEKFKGRVTMTRDTSISTAYMELSRLRSDDTAVYYCARRPPGWFFDVWGQGTTVTVSS
VL: DIQMTQSPSSLSASVGDRVTITCKASQDVSTDVAWYQQKPGKAPKLLIYSASYRYTGVPSRFSGSGSGTDFTLTISSLQPEDFATYYCQQHYSTPWTFGGGTKVEIK
For B4, the dissociation constant (Kd) in experiment [5] came to 3.54 nM.

B5: 20E4-VH4/VL4 (antibody, V domains shown)
VH: B4 VH with S30T, I76T, A79V, R85S, D89E, T113M
VL: DIVMTQSPDSLAVSLGERATINCKASQDVSTDVAWYQQKPGQPPKLLIYSASYRYTGVPDRFSGSGSGTDFTLTISSLQAEDVAVYYCQQHYSTPWTFGGGTKVEIK
Consider B5, for which, in experiment [5], the Kd is 6.22 nM.

B6: 20E4-VH3/VL3 (antibody, V domains shown)
VH: B4 VH with K12M, V20I, S25T, A40R, M48I, R67K, V68A, R72A, Q110A
VL: B4 VL with Q3V, L73F, L78V, F83L, T85V, V104L
Take B6: the Kd in experiment [5] was determined as 3.09 nM.

B7: 9F9 humanized anti-VISTA antibody VH15/VL15 (antibody, V domains shown)
VH: QVQLVQSGAEVMKPGASVKLSCKASGYTFTGYWMQWVKQRPGQGLEWIGAIYPGDGDTRYSQKFKGKATMTADTSISTAYMELSRLRSDDSAVYYCARRDYGAWFAYWGAGTTVTVSS
VL: DIVMTQSPSSLSASVGERVTITCKASQDINSYLSWFQQKPGKAPKTLIYRANRLVDGVPSRFSGSGSGTDFTFTISSVQPEDLAIYYCLQYDEFPYTFGGGTKLEIK
With B7, the Kd in experiment [2] was 24.4 nM; in experiment [3] it was 20.8 nM.

B8: 9F9 humanized anti-VISTA antibody VH14/VL15 (antibody, V domains shown)
VH: B7 VH with L20I, K38R, S91T
VL: B7 VL
On to B8, for which the Kd in experiment [2] is 20.3 nM; in experiment [3], 17.5 nM.

B9: 20E4 parental anti-VISTA antibody (VH0/VL0) (antibody, V domains shown)
VH: QVQLQQSGAELMKPGASVKISCKATGYTFSSSWVEWVRQRPGHGLEWIGEIFPGSGSTHYNEKFKGKATFTADTSSNTAYLQLSSLTSDDSAVYYCARRPPGWFFDVWGAGTTVTVSS
VL: DIVMTQSHKFMSTSVGDRVSITCKASQDVSTDVAWYQQKPGQSPKLLIYSASYRYTGVPDRFTGSGSGTDFTFTISSVQAEDLAVYYCQQHYSTPWTFGGGTKLEIK
Regarding B9, the Kd in experiment [5] is 4.37 nM.

B10: 9F9 parental anti-VISTA antibody (VH0/VL0) (antibody, V domains shown)
VH: QVQFQQSGAELARPGASVKLSCKASGYTFTGYWMQWVKQRPGQGLEWIGAIYPGDGDTRYSQKFKGKVTLTADKSSSTAYMQLSSLASEDSAVYYCARRDYGAWFAYWGQGTLVTVSA
VL: DIKVTQSPSSMYASLGERVTITCKASQDINSYLSWFQQKPGKSPKTLIYRANRLVDGVPSRFSGSGSGQDYSLTISSLDYEDMGIYYCLQYDEFPYTFGGGTKLEIK
On to B10, for which the Kd in experiment [1] came to 8.65 nM; in experiment [2], 9.45 nM; in experiment [3], 12.2 nM; in experiment [4] it was 5.03 nM.
